For this assay, the target named is T1, His-CARK1-KD (CARK1 kinase domain, residues 50-353) (Arabidopsis thaliana, UniProt Q9LUT0 50-353).
T1 construct: Cytosolic ABA Receptor Kinase 1 (CARK1), Arabidopsis, kinase domain, residues 50-353; also called Cytosolic ABA Receptor Kinase 1 kinase domain; source: E. coli Rosetta (DE3), purified as previously described (Zhang et al., 2018)
T1 sequence (looked up): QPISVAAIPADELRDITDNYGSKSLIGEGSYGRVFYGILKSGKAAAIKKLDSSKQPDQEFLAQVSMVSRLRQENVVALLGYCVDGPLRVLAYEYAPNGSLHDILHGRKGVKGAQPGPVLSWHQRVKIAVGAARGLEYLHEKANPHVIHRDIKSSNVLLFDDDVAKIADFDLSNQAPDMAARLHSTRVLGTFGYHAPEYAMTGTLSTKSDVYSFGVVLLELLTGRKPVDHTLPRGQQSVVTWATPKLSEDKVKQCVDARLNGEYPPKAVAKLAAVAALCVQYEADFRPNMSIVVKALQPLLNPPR
In words: pull-down; GST-RCARs bound to glutathione Sepharose 4B resin; His-CARK1-KD or His-CARK1-KD^N204A co-incubated 1 h at room temperature; 50 ug of each protein; SDS-PAGE and anti-His blot. The note with it: both partners purified.

B1: GST-RCAR12 (receptor, Arabidopsis thaliana, UniProt Q8VZS8 1-221, looked up)
chain: MANSESSSSPVNEEENSQRISTLHHQTMPSDLTQDEFTQLSQSIAEFHTYQLGNGRCSSLLAQRIHAPPETVWSVVRRFDRPQIYKHFIKSCNVSEDFEMRVGCTRDVNVISGLPANTSRERLDLLDDDRRVTGFSITGGEHRLRNYKSVTTVHRFEKEEEEERIWTVVLESYVVDVPEGNSEEDTRLFADTVIRLNLQKLASITEAMNRNNNNNNSSQVR
notes: ABA receptor RCAR12 (PYL1), Arabidopsis, subfamily III; also called PYL1; source: E. coli Rosetta (DE3), purified as GST-tag protein; not shown: GST, N-terminal, kept
On to B1, for which the binding result was “binds”.

B2: GST-RCAR14 (receptor, Arabidopsis thaliana, UniProt O80992 1-190, looked up)
chain: MSSSPAVKGLTDEEQKTLEPVIKTYHQFEPDPTTCTSLITQRIHAPASVVWPLIRRFDNPERYKHFVKRCRLISGDGDVGSVREVTVISGLPASTSTERLEFVDDDHRVLSFRVVGGEHRLKNYKSVTSVNEFLNQDSGKVYTVVLESYTVDIPEGNTEEDTKMFVDTVVKLNLQKLGVAATSAPMHDDE
notes: ABA receptor RCAR14, Arabidopsis, subfamily III; source: E. coli Rosetta (DE3), purified as GST-tag protein; not shown: GST, N-terminal, kept
In the case of B2, the binding result was “binds”.

B3: GST-RCAR13 (receptor, Arabidopsis thaliana, UniProt Q9SSM7 1-209, looked up)
chain: MNLAPIHDPSSSSTTTTSSSTPYGLTKDEFSTLDSIIRTHHTFPRSPNTCTSLIAHRVDAPAHAIWRFVRDFANPNKYKHFIKSCTIRVNGNGIKEIKVGTIREVSVVSGLPASTSVEILEVLDEEKRILSFRVLGGEHRLNNYRSVTSVNEFVVLEKDKKKRVYSVVLESYIVDIPQGNTEEDTRMFVDTVVKSNLQNLAVISTASPT
notes: ABA receptor RCAR13, Arabidopsis, subfamily III; source: E. coli Rosetta (DE3), purified as GST-tag protein; not shown: GST, N-terminal, kept
With B3, the binding result is “binds”.

Values taken from article PMC6322571, “CARK1 phosphorylates subfamily III members of ABA receptors” (Journal of Experimental Botany, 2018).
